Experimental data: patent US20220387557A1 (OXFORD UNIVERSITY INNOVATION, published 2022)
Residue numbers refer to the chain shown, from its start. Each block holds one binder with its values, some of them ahead of it.

Experiments:
[1] = target: T1, Fc tagged human TNFR2 (Sino Biological) (human, UniProt P20333 23-257); test: SPR (Biacore T200) single cycle kinetics, Fc-tagged receptor captured on Protein A chip, TNF protein as analyte at 1.67-15 nM
T1 construct: Bought reagent; also called hTNFR2; hTNFR2-Fc; not shown: Fc tag of the bought protein
T1 sequence (looked up): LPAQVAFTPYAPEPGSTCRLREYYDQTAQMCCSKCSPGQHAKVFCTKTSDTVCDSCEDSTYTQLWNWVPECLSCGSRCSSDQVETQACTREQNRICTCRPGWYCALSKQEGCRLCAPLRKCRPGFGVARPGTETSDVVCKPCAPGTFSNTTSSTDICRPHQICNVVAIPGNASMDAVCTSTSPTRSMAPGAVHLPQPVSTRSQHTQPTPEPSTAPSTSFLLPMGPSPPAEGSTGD
Method: (§1) Single cycle kinetic analysis was performed using a Biacore T200 (serial no. 1909913) running Biacore T200 Evaluation Software V2.0.1 (Uppsala, Sweden). All experiments were run at 25° C. with HBS-P+ running buffer (pH 7.4) (GE Healthcare, Little Chalfont, UK).
(§2) Due to the limit in the number of available flow cells for analysis (three Fc per analysis, Fc2, Fc3 and Fc4, with Fc1 always being used as blank reference for non-specific subtraction), receptor binding was assessed in two separate overlapping runs using either: hTNFR1 (Fc2), hTNFR2 (Fc3) and mTNFR1 (Fc4), or; hTNFR1 (Fc2), […] and mTNFR2 (Fc4). Receptors were diluted in running buffer to a concentration of ˜4 μg/mL and at the start of each cycle loaded onto Fc2, Fc3 and Fc4 of a Protein A chip (GE Healthcare, Little Chalfont, UK) at a flow rate of 10 μL/min to give an RU of 40-100. The surface was then allowed to stabilise. Single cycle kinetic data was obtained at a flow rate of 45 μL/min. […] The association phase for the three injections of increasing concentrations of TNF was monitored for 240 seconds and a single dissociation phase was measured for 2700 seconds following the last injection of TNF. Regeneration of the Protein A surface was conducted using 10 mM glycine-HCl pH 1.5. The signal from the reference channel Fc1 (no receptor) was subtracted from that of Fc2, Fc3 and Fc4 to correct for differences in non-specific binding to a reference surface.
(§3) Controls were used to ensure the integrity of the receptors during the Biacore run.

[2] = target: T2, Fc tagged mouse TNFR2 (Sino Biological) (mouse, UniProt P25119 23-258); test: as above
T2 construct: Bought reagent; also called mTNFR2; mTNF2; not shown: Fc tag of the bought protein
T2 sequence (looked up): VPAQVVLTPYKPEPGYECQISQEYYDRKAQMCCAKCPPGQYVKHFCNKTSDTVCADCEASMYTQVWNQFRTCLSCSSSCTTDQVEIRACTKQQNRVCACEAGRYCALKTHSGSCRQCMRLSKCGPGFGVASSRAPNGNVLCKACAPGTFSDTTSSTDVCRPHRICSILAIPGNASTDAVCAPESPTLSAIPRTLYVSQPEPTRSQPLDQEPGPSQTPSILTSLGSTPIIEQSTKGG
Method: as §1, §2, §3

[3] = target: T3, Fc tagged human TNFR1 (Sino Biological) (human, UniProt P19438 22-211, limits assumed); test: SPR, Biacore T200 single cycle kinetics, receptor-Fc captured on Protein A chip, TNF 1.67-15 nM
T3 construct: Bought reagent; also called hTNFR1; hTNFR1-Fc; not shown: Fc tag of the bought protein
T3 sequence (looked up): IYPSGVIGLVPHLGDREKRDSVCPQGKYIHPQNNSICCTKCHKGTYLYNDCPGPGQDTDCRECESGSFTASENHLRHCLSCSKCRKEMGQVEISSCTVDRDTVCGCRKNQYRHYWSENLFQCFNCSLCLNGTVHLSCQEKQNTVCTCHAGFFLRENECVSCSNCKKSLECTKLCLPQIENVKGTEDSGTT
Method: as §1, §2

[4] = target: T4, Fc tagged mouse TNFR1 (Sino Biological) (mouse, UniProt P25118 22-212, limits assumed); test: as above
T4 construct: Bought reagent; also called mTNFR1; mTNFR1-Fc; not shown: Fc tag of the bought protein
T4 sequence (looked up): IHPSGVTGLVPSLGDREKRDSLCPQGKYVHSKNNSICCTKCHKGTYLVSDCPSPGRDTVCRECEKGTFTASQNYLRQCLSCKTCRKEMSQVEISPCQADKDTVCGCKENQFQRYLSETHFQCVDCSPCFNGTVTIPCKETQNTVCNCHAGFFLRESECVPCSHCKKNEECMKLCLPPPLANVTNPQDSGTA
Method: as §1, §2

[5] = target: T3, Fc tagged human TNFR1 (Sino Biological); test: SPR, Biacore T200 multi cycle kinetics, receptor-Fc captured on Protein A chip, TNF 1.25-40 nM, 1:1 model
Method: (§4) Multi cycle kinetics analysis of binding to hTNFR1, hTNFR2, mTNFR1 and mTNFR2 was performed on the 10 lead variants using a Biacore T200 (serial no. 1909913) instrument running Biacore T200 Evaluation Software V3.0.1 (Uppsala, Sweden) to characterise further the binding to these receptors.
(§5) As with the single cycle kinetics, receptor binding was assessed in two separate experiments. In the first set of experiments binding to hTNFR1 (Fc2), hTNFR2 (Fc3) and mTNFR1 (Fc4) was assessed. In the second set of experiments the extent of mTNF2 (Fc4) binding was assessed using hTNFR1 (Fc2) and hTNFR2 (Fc3) as controls. All receptors were diluted in running buffer to a concentration of ˜4 μg/mL and at the start of each cycle loaded onto Fc2, Fc3 and Fc4 of a Protein A CM5 chip and captured at a flow rate of 10 μL/min to give an RU of ˜40-100. The surface was then allowed to stabilise. All kinetic data was obtained using a flow rate of 75 μl/min to minimise any potential mass transfer effects. […] The association phase of TNF was monitored for 280 seconds and the dissociation phase was measured for 2100 seconds. […] Regeneration of the Protein A surface was conducted using two injections of 10 mM glycine-HCL pH 1.5 at the end of each cycle. The signal from the reference channel Fc1 was subtracted from that of Fc2, Fc3 and Fc4 to correct for differences in non-specific binding to a reference surface, and a global Rmax parameter was used in the 1-to-1 binding model.

[6] = target: T4, Fc tagged mouse TNFR1 (Sino Biological); test: as above
Method: as §4, §5

[7] = target: T3, Fc tagged human TNFR1 (Sino Biological); test: SPR, Biacore single cycle kinetics, stability study, before freezing (t=0)
Method: as §2
(§6) At day zero (prior to freezing) and following thawing on ice after 3 months and 1 year the following assays were performed: [0341] SDS-PAGE [0342] OD280 nm [0343] Single cycle Biacore for binding to hTNFR1, hTNFR2 and mTNFR1

[8] = target: T4, Fc tagged mouse TNFR1 (Sino Biological); test: as above
Method: as §2, §6

[9] = target: T3, Fc tagged human TNFR1 (Sino Biological); test: SPR, Biacore single cycle kinetics, stability study, after 1 year at -20° C.
Method: as §2, §6

[10] = target: T4, Fc tagged mouse TNFR1 (Sino Biological); test: as above
Method: as §2, §6

[11] = target: T3, Fc tagged human TNFR1 (Sino Biological); test: SPR, Biacore single cycle kinetics, stability study, after 1 year at -80° C.
Method: as §2, §6

[12] = target: T4, Fc tagged mouse TNFR1 (Sino Biological); test: as above
Method: as §2, §6

[13] = target: T1, Fc tagged human TNFR2 (Sino Biological); test: SPR, Biacore T200 multi cycle kinetics, 1:1 model; ** = a residual amount of binding is observed but 1 to 1 model is a poor fit
Method: as §4
as §5, with “The signal from the reference channel Fc1 was subtracted from that of Fc2, Fc3 and Fc4 to correct for differences in non-specific binding to a reference surface, and a global Rmax parameter was used in the 1-to-1 binding model.” left out

B2: TNF mutein B4 (ligand)
chain: VRSSSHTPSDKPVAHVVANPQAEGQLQWLNRRANALLANGVELRDNQLVVPSEGLYLIYSQVLFKGQGCPSTHVLLTHTISRISESHDGKVNLLSAIKSPCQRETPEGAEAKPWYEPIYLGGVFQLEKGDRLSAEINRPDYLDFAESGQVYFGIIAL
notes: Human TNF mutein, SESHDG at positions 84-89; not shown: C-terminal FLAG tag and His6 tag from vector pANT65
Kd [3]: 0.0195 nM
Kd [4]: 0.132 nM
Kd [5]: 0.11 nM
Kd [6]: 0.153 nM
binding result [2]: no binding (tested: 15 nM)

B4: TNF mutein B6 (ligand)
chain: B2 chain with H6R, S84T, E85G, S86T, H87Y, D88S, G89Y
notes: Human TNF mutein, TGTYSY at positions 84-89; not shown: C-terminal FLAG tag and His6 tag from vector pANT65
Kd [7]: 0.0969 nM
Kd [8]: 0.067 nM
Kd [9]: 0.0526 nM
Kd [10]: 0.711 nM
Kd [11]: 0.0667 nM
Kd [12]: 0.0474 nM
Kd [3]: 0.0169 nM
Kd [4]: 0.304 nM
Kd [5]: 0.339 nM
Kd [6]: 0.59 nM
binding result [1]: no binding (tested: 15 nM)
binding result [2]: no binding (tested: 15 nM)

B5: TNF mutein B5 (ligand)
chain: B2 chain with R2H, H6R, S84T, E85G, S86T, H87Y, D88V, G89D
notes: Human TNF mutein, TGTYVD at positions 84-89; not shown: C-terminal FLAG tag and His6 tag from vector pANT65
Kd [7]: 0.0355 nM
Kd [8]: 0.0771 nM
Kd [9]: 0.0493 nM
Kd [10]: 0.115 nM
Kd [11]: 0.0446 nM
Kd [12]: 0.0977 nM
Kd [3]: 0.0199 nM
Kd [4]: 0.128 nM
Kd [5]: 0.0591 nM
Kd [6]: 0.289 nM
binding result [1]: no binding (tested: 15 nM)
binding result [2]: no binding (tested: 15 nM)

B7: TNF mutein C8 (ligand)
chain: B2 chain with H6R, E85Q, S86T
notes: Human TNF mutein, SQTHDG at positions 84-89; not shown: C-terminal FLAG tag and His6 tag from vector pANT65
Kd [3]: 0.188 nM
Kd [4]: 0.363 nM
Kd [5]: 0.261 nM
Kd [6]: 0.112 nM
Kd [13]: 4.13 nM
binding result [2]: no binding (tested: 15 nM)

B9: TNF mutein C4 (ligand)
chain: B2 chain with H6R, E85H, H87V, D88E
notes: Human TNF mutein, SHSVEG at positions 84-89; not shown: C-terminal FLAG tag and His6 tag from vector pANT65
Kd [3]: 0.0129 nM
Kd [4]: 0.0323 nM
Kd [5]: 0.0306 nM
Kd [6]: 0.208 nM
binding result [1]: no binding (tested: 15 nM)
binding result [2]: no binding (tested: 15 nM)

Continued, values first:

binding result [1]: binds
binding result [2]: binds
B1: mouse TNF (mTNF), soluble protein expressed from pANT65 (ligand, UniProt P06804 80-235, looked up)
chain: LRSSSQNSSDKPVAHVVANHQVEEQLEWLSQRANALLANGMDLKDNQLVVPADGLYLVYSQVLFKGQGCPDYVLLTHTVSRFAISYQEKVNLLSAVKSPCPKDTPEGAELKPWYEPIYLGGVFQLEKGDQLSAEVNLPKYLDFAESGQVYFGVIAL
notes: not shown: C-terminal FLAG tag and His6 tag from vector pANT65

Kd [7]: 0.0173 nM
Kd [8]: 0.07 nM
Kd [9]: 0.0331 nM
Kd [10]: 0.0692 nM
Kd [11]: 0.0399 nM
Kd [12]: 0.0458 nM
Kd [3]: 0.0171 nM
Kd [4]: 0.0407 nM
Kd [5]: 0.00872 nM
Kd [6]: 0.14 nM
binding result [1]: no binding (tested: 15 nM)
binding result [2]: no binding (tested: 15 nM)
B3: TNF mutein G4 (ligand)
chain: B2 chain with H6R, E85S, S86T, H87Y, D88N, G89P
notes: Human TNF mutein, SSTYNP at positions 84-89; also called mutTNF G4; mutTNF; not shown: C-terminal FLAG tag and His6 tag from vector pANT65

Kd [7]: 0.022 nM
Kd [8]: 0.116 nM
Kd [9]: 0.0262 nM
Kd [10]: 0.111 nM
Kd [11]: 0.0353 nM
Kd [12]: 0.165 nM
Kd [3]: 0.0424 nM
Kd [4]: 0.0827 nM
Kd [5]: 0.0465 nM
Kd [6]: 0.208 nM
binding result [1]: no binding (tested: 15 nM)
binding result [2]: no binding (tested: 15 nM)
B6: TNF mutein F7 (ligand)
chain: B2 chain with R2H, H6R, S86T, H87V, D88V, A134V
notes: Human TNF mutein, SETVVG at positions 84-89; not shown: C-terminal FLAG tag and His6 tag from vector pANT65

Kd [7]: 0.012 nM
Kd [8]: 0.11 nM
Kd [9]: 0.0271 nM
Kd [10]: 0.527 nM
Kd [11]: 0.023 nM
Kd [12]: 0.398 nM
Kd [3]: 0.635 nM
Kd [4]: 7.35 nM
Kd [5]: 0.462 nM
Kd [6]: 5.08 nM
binding result [1]: no binding (tested: 15 nM)
B8: TNF mutein F3 (ligand)
chain: B2 chain with H6R, S84T, E85T, S86T, H87Y, D88R, G89L, I155V
notes: Human TNF mutein, TTTYRL at positions 84-89; not shown: C-terminal FLAG tag and His6 tag from vector pANT65
